According to patent US20250074997A1 (PERSONGEN BIOTHERAPEUTICS SUZHOU, published 2025):

Molecular target: T1, UPAR-His recombinant protein (UniProt Q03405 23-303)
T1 construct: range 23-303; Expressed in 293 cells, purified on Ni-NTA; Biotinylated in the uPA ELISA; also called UPAR-His antigen; biotinUPAR-His; not shown: C-terminal His tag
Test: phage ELISA, plate coated with UPAR-His, HRP-anti-M13

T1 sequence (Q03405 23-303 limits assumed): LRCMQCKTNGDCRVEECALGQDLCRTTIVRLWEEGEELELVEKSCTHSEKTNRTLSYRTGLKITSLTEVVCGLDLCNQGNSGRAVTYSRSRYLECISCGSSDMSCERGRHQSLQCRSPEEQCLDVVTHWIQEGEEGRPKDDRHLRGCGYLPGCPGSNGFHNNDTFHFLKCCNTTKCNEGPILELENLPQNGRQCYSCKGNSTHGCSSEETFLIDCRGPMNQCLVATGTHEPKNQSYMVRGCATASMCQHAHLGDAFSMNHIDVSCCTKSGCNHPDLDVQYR

Row | Binder | S/N ratio
1 | phage mono clone 1-F9 (VHH, the phage coat fusion part is not described; also called 1-F09) VHH: QSLLVESGGGLVQPGGSLRLSCAASGFSLDYYAIGWFRQAPGKEREEVSCISSGGGSTNYADSVKGRFTISRDNAKNTVYLQMNSLKPEDTAVYYCAAKRNFMLYLVQCPYEYDYWGQGTQVTVSS | > 5
2 | phage mono clone 1-F10 (VHH, the phage coat fusion part is not described) VHH: QVQLVESGGGLVQPGGSLRLSCAASGSILSIRAVGWYRQAPGKQRELVALITSDGTTHYALSVKGRFTISRDNAKTTVYLQMNSLKPEDTAVYYCNREDYARRYWGQGTQVTVSS | > 5
3 | phage mono clone 1-G2 (VHH, the phage coat fusion part is not described) VHH: QSQLAESGGGLVQPGGSLRLSCVASRFSLDAYAIAWFRQAPGKEREGVSCISSIGGRTNYADPVKGRFTISRDNAKNTAYLEMNSLQPEDTAVYYCAAVQRLFGPCLLSGGMDYWGKGTPVTVSS | > 5
4 | phage mono clone 3-E03 (VHH, the phage coat fusion part is not described) VHH: AVQLVDSGGGLVQAGGSLRLSCAASGIRLSSNAMAWYRQAPGKQRGLVALITSDGTTNYVDSVKGRFTISRDNAKNTVYLQMNSLKPEDTAVYYCKREPYLSTRGYWGQGTQVTVSS | > 5
5 | phage mono clone 3-G07 (VHH, the phage coat fusion part is not described) VHH: RLQLVESGGGLVQPGGSLRLSCAVSGKALDYYSIGWFRQAPRKQREGVSCISSSGGSTNYADSVKGRFTISRDNAKDTVYLQMNSLKPEDTADYYCAVVSTVLCGLGIYEYDYWGQGTLVTVSS | > 5
6 | phage mono clone 1-B4 (VHH, the phage coat fusion part is not described) VHH: QVQLVESGGGLVQPGGSLRLSCAASGFTLDYYAIGWFRQAPGKEREGVSCISSTGGSTNYADSVKGRFTISRDNAKNTVYLQMNSLKPEDTAVYYCAADTHYLTVCYDRLGFDYWGQGTQVTVSS | > 5
7 | phage mono clone 3-E04 (VHH, the phage coat fusion part is not described) VHH: QLRLVESGGGLVQPGGSLRLSCAASGFTLDYYDIGWFRQAPGKEREGVSCIGRISGDTDYAESVKGRFTASRDNAKNTVYLQMNSLKPEDTAVYYCAAERRFFGGGCRRSVDNMDSWGKGTLVTVSS | > 5
8 | phage mono clone 1-F1 (VHH, the phage coat fusion part is not described) VHH: EVQLAESGGGLVQPGGSLRLSCAASGFTFSSYTMSWVRQAPGKGLEWVSAIDSDGGVTSYADSVKGRFTISRDNAKNTLYLQMNSLKPEDTAVYYCANGGYCSGYGCYPRLLSQGTLVTVSS | > 5
9 | phage mono clone 3-H02 (VHH, the phage coat fusion part is not described) VHH: QLTLVESGGGLVQPGGSLRLSCAASEFTLDYYAIGWFRQAPGKEREGVSCISSSDGSTYYADSVKGRFTISRDNAKNTVYLQMNSLKPEDTAVYYCAIGGLLLLRLWERGNYEFDYWGQGTQVTVSS | > 5
10 | phage mono clone 3-E09 (VHH, the phage coat fusion part is not described) VHH: AVQLVDSGGGLVQPGGSLRLSCAASGFTFSSYAMGWARQVPGKGLEWVSIIYRDGNTYYTDSVKGRFTISRDNAKNTVYLQMNSLKPEDTAVYYCAPVETVAARRRDYWGQGTQVNVSS | > 5
11 | phage mono clone 3-E10 (VHH, the phage coat fusion part is not described) VHH: AVQLVDSGGGLVQPGGSLRLSCAASGFTFSSYAMGWARQVPGKGLEWVSIIYRDGNTYYTDSVKGRFTISRDNAKNTVYLQMNSLKPEDTAVYYCAPVETVAARRRDYWGQGTQVNVSS | > 5
12 | phage mono clone 1-H8 (VHH, the phage coat fusion part is not described) VHH: QRQLVESGGGLVQPGGSLRLSCAVSEFTLDYYAIGWFRQAPGKEREGVSCISSSGGSTVYADSVKGRFTISADNAKNTVYLQMNSLKPEDTAVYYCAAGSLLLFRLCVSRLYEYDYWGQGTQVTVSS | > 5
13 | phage mono clone 3-E06 (VHH, the phage coat fusion part is not described) VHH: EVQLVESGGGLVQAGGSLTLSCVASASGSILRLNAMGWYRQAPAKQRELVALITRDGSTNYPDSVKGRFTISRDNAKNTVYLQMSSLSPEDTAVYYCYVQNHYSNYWGQGTQVTVSS | > 5
14 | phage mono clone 1-G1 (VHH, the phage coat fusion part is not described) VHH: QVQLVESGGGLVQPGGSLRLSCAASGNSLRRYAIGWFRQAPGKEREGVVCISTVGGSSYYVDSVKGRFTISEDNVKNTAYLQMNSLEPEDTAVYYCAAANRLYCPAYGSAGYDYWGQGTQVTVSS | > 5
15 | phage mono clone 1-H2 (VHH, the phage coat fusion part is not described) VHH: QVQLVESGGGLVQPGGSLRLSCAASGSTLDYYAIAWFRQAPGKGREGVSCISSSGGRTNYADSVKGRFTVSRDNVKNTVYLQMNSLKPEDTAVYNCAAGGDLSCYGTPTSIWQYDLWGQGTQVTVAS | > 5

Molecular target: T1, UPAR-His recombinant protein
Test: SPR (BiaCore T200), UPAR recombinant protein immobilised on CM5 chip, antibody as mobile phase

Row | Binder | Kd [nM] | koff [s⁻¹] | kon [M⁻¹ s⁻¹]
16 | pcDNA3.4-SDAB20-7-26-2-1-F9-hFC (Fc fusion, also called 1-F09; not shown: human IgG1 Fc from vector pcDNA3.4-hIgG1-Fc2) QSLLVESGGGLVQPGGSLRLSCAASGFSLDYYAIGWFRQAPGKEREEVSCISSGGGSTNYADSVKGRFTISRDNAKNTVYLQMNSLKPEDTAVYYCAAKRNFMLYLVQCPYEYDYWGQGTQVTVSS | 1.49 | 0.000101 | 67600
17 | pcDNA3.4-SDAB20-7-26-2-3-E04-hFC (Fc fusion, Llama VHH fused in tandem with human IgG1 Fc, expressed in 293 cells, purified on protein A; not shown: human IgG1 Fc from vector pcDNA3.4-hIgG1-Fc2) QLRLVESGGGLVQPGGSLRLSCAASGFTLDYYDIGWFRQAPGKEREGVSCIGRISGDTDYAESVKGRFTASRDNAKNTVYLQMNSLKPEDTAVYYCAAERRFFGGGCRRSVDNMDSWGKGTLVTVSS | 22.3 | 0.00139 | 62700
18 | pcDNA3.4-SDAB20-7-26-2-3-H02-hFC (Fc fusion, Llama VHH fused in tandem with human IgG1 Fc, expressed in 293 cells, purified on protein A; not shown: human IgG1 Fc from vector pcDNA3.4-hIgG1-Fc2) QLTLVESGGGLVQPGGSLRLSCAASEFTLDYYAIGWFRQAPGKEREGVSCISSSDGSTYYADSVKGRFTISRDNAKNTVYLQMNSLKPEDTAVYYCAIGGLLLLRLWERGNYEFDYWGQGTQVTVSS | 1.31 | 0.000173 | 132000
